Here are results for 3 molecules from patent US20210079109A1 (Regeneron, published 2021).

Changes are numbered by the printed parent chain.

Assay [1] has as its target T1, recombinant human CD63 extracellular loop 2 expressed with a C-terminal Myc-Myc-hexahistidine (human).
T1 construct: also called hCD63 EC loop 2-MMH; human CD63 EC loop 2-MMH
Put plainly: SPR Biacore, mAb captured, 37C. The method, boiled down: (§1)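 Anti-CD63 mAbs captured on anti-mouse Fc or anti-human Fab surfaces; CD63 EC2 reagents flowed in HBS-ET, pH 7.4, at 25° C or 37° C. ka and kd from 1:1 binding model with mass transport limitation; KD and t½ calculated from kinetic rates.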
(In general: Surface plasmon resonance follows binding to a sensor surface in real time, without labels.)

Assay [2] concerns the target T2, recombinant human CD63 extracellular loop 2 expressed with a C-terminal human Fc tag (human).
T2 construct: also called hCD63 EC loop 2-hFc; human CD63 EC loop 2-Fc
The assay is described as follows: SPR Biacore, mAb captured, 37C. The method, boiled down:
as §1

Assay [3] addresses T3, human CD63 (human, UniProt P08962 2-238).
T3 sequence: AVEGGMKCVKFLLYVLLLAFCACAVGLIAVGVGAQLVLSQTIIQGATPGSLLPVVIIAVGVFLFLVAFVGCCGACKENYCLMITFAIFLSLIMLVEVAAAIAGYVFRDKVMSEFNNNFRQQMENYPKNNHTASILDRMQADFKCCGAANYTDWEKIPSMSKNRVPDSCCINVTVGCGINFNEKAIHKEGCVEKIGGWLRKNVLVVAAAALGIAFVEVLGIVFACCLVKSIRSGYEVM
Put plainly: cell-based or functional assay.

Assay [4] deals with T3, human CD63. The assay is described as follows: imaging of stained T47D cells, 10 ug/mL antibody. Here is the method: To stain, quadruplicate plates of cells were incubated with 10 μg/mL of anti-CD63 antibodies that was diluted in 2% FBS in PBS, without Calcium and Magnesium (Irving, Cat #9240) (staining buffer) for 30 minutes at 4° C. […] Two plates were immediately fixed and stained with 4% paraformaldehyde (PFA; ThermoFisher, Cat #28908)+5 uM DRAQ5 (ThermoFisher, Cat #62251) in PBS for 20 minutes (non-internalization plates). The remaining two plates were incubated with growth media at 37° C. for 2 hours followed by fixation and staining for 20 minutes using a solution of 4% PFA+5 μM DRAQ5 diluted in PBS (internalization plates). After fixation, all plates were washed once with PBS. One non-internalization plate and one internalization plate were incubated with an anti-Alexa Fluor 488 antibody (Regeneron) at 50 μg/mL in PBS overnight at 4° C. to quench surface Alexa Fluor 488 fluorescence. The remaining plates were incubated with PBS only. Confocal images were acquired on the Opera Phenix (Perkin Elmer) at 40× magnification. Harmony analysis software (Perkin Elmer) was utilized to identify DRAQ5-labeled cells and the total Alexa-Fluor 488 relative fluorescent units (RFU) per cell was determined. The total binding at 4° C. (RFU values of 4° C. unquenched wells), total binding at 37° C. (RFU values of 37° C. unquenched wells), the total internalized RFU, and the % Internalization were determined for each antibody as shown in Table 1. For all calculations, background fluorescence from 2nd Ab only control wells were subtracted from every well. Total internalized RFU was calculated as follows: Total RFU of 37° C. unquenched samples−Surface RFU at 37° C. Surface RFU is defined as unquenched RFU at 37° C.−quenched RFU at 37° C.)/QE. QE (quenching efficiency) is defined as: 1−(Total RFU of 4° C. quenched sample/Total RFU of 4° C. unquenched sample). The % Internalization was determined from the following formula: (Total internalized RFU at 37° C./Total RFU at 37° C.)*100.

The target in assay [5] is T3, human CD63. The assay is described as follows: flow cytometry, HEK293 cells. As for the experimental part: Relative cell surface binding of the anti-CD63 antibodies to human CD63 expressing cells was accessed via flow cytometry using CD63 positive HEK293 cells (ATCC, Cat #CRL-1573), which endogenously express human CD63, and CD63 negative HEK293/CD63 knock out cells. For the assay, cells were plated in PBS without calcium and magnesium (VWR, Cat #45000-446), containing 2% FBS (Saradigm Cat #1500-500) (Staining Buffer) in 96 well V-bottom plates (Axygen Scientific, Cat #P-96-450-V-C-S). Cells were then incubated with anti-CD63 antibodies or isotype control antibodies at concentrations ranging from 100 nM to 1.7 pM for 30 minutes on ice. Wells containing no antibody were used as controls. HEK293/CD63KO cells were stained with only the highest concentration (100 nM) of the antibodies. […] Cells were then washed and fixed using a 50% solution of Cytofix (BD Biosciences, Cat #554655) diluted in PBS. Samples were run on the Intellicyte Hypercyt flow cytometer and results were analyzed in ForeCyt software (Intellicyte) to calculate the mean fluorescent intensity (MFI). Measured values were analyzed using a four parameter logistic equation over a 12-point response curve using GraphPad Prism and the resulting EC₅₀ values are reported (Table 12). The signal to noise ratio (S/N) was determined by calculating the ratio of the anti-CD63 antibodies or the control antibodies MFI to the wells containing no antibodies (Table 12).
Background: Flow cytometry measures light scatter and fluorescence of single cells or particles in a stream.

T2 sequence (chain, as listed by the source limits assumed): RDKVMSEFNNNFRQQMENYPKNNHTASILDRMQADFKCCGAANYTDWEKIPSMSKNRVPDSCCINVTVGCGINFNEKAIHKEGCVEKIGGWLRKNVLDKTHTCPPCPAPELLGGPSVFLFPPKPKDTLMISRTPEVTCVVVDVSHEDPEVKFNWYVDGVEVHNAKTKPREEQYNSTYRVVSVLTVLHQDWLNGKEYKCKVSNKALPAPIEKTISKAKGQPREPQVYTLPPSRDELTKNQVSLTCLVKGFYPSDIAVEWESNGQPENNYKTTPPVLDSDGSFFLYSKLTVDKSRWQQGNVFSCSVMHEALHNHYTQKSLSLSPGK
T1 sequence (chain, as listed by the source limits assumed): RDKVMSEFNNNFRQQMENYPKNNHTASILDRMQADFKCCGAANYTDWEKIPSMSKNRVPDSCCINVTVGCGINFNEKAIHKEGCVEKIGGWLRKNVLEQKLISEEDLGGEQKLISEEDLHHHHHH

B1: H2M12450N (antibody, V domains shown)
VH: QVQLQESGPKVVKPSETLSLTCTVSGGSISSYYWNWIRQSPGKGLEWIGYTKRGYTDYNPSLRSRVTISEDTSKNQFSLRISSVTAADTAVYYCAQMGWGSHAFDMWGQGTMVAVSS
VL: EIVLTQSPGTLSLSPGERATLSCRASQSVNSRYLAWYQQKPGQAPRLLIYGASSRATGIPDRCSGSGSGTDFTLTISRLEPEDFAVYYCQQYGSSPWTFGQGTKVEIK
notes: also called H2aM12450N; mAb12450
As to B1, in assay [1], the “100 nM Ag Bound (RU)” value was found to be 58 RU; the Kd (commonly the equilibrium constant for the complex coming apart) stood at 1.15 nM; the koff (in general, the rate constant with which the complex falls apart) was 0.000201 s⁻¹; the kon (in general, the second-order rate constant of association) was determined as 175000 M⁻¹ s⁻¹. The t1/2 in assay [1] is 57 min. In addition, in assay [2], the “100 nM Ag Bound (RU)” value worked out at 138 RU, the equilibrium dissociation constant (Kd) is 0.119 nM, the koff was found to be 4.89e-05 s⁻¹ and the kon stood at 411000 M⁻¹ s⁻¹. Besides, the t1/2 in assay [2] was determined as 236 min. In addition, in assay [3], the “T47D (nM) IC50, indirect cytotoxicity with Fab anti-mFc-MMAF” value amounted to 0.24 nM. Moreover, in assay [4], the “Total RFU at 4C” value worked out at 2.36e+06 RFU and the “Total RFU at 37C (2 h)” value was found to be 2.94e+06 RFU. For the same molecule, in assay [5], the EC50 – broadly, the concentration that produces a half-maximal response – is 0.5 nM and the “S/N (MFI over no-antibody wells)” value is 26.7.

B2: H1M12451N (antibody, V domains shown)
VH: QVQLQESGPGLMKPSETLSLTCTVSGGSFSSYYWNWIRQSPGKGLEWIGYIRYSGDTNYKPSLKSRFTISIDTSKNLFSLRLKSVTAADTAVYYCARMGLGSDAFDIWGQGTMVTVSS
VL: B1 VL with S31N, R32N, A52V, S53F, S54N, G58N, C63F
With B2, in assay [1], the “100 nM Ag Bound (RU)” value was 44 RU, the Kd amounted to 21.4 nM, the koff is 0.0019 s⁻¹ and the kon was 88900 M⁻¹ s⁻¹. Further, the t1/2 in assay [1] came out at 6 min. For the same molecule, in assay [2], the “100 nM Ag Bound (RU)” value is 118 RU, the Kd was found to be 0.509 nM, the koff is 0.000331 s⁻¹ and the kon was 651000 M⁻¹ s⁻¹. Moreover, the t1/2 in assay [2] came to 35 min. Further, in assay [4], the “Total RFU at 4C” value amounted to 1.9e+06 RFU and the “Total RFU at 37C (2 h)” value stood at 2.32e+06 RFU. Moreover, in assay [5], the EC50 came to 1.8 nM and the “S/N (MFI over no-antibody wells)” value worked out at 31.6.

B3: H2M12395N (antibody, V domains shown)
VH: QVQLQESGPRLVKPSETLSLTCIVSGGSISNFYWNWIRQSPGKGLEWIGYFFYTGTIDYNPSLKSRVTISLDTSKNQFSLNLRLLTAADAAVYYCARMGLGANAFDIWGHGTMVTVSS
VL: B1 VL with S28H, N30S, R32N, A52G, C63F, E82A, Y87F, S94N, I107M
notes: also called H2aM12395N
As to B3, in assay [1], the “100 nM Ag Bound (RU)” value was found to be 31 RU, the Kd came to 56.4 nM, the koff was determined as 0.00932 s⁻¹ and the kon was found to be 165000 M⁻¹ s⁻¹. Besides, in assay [1], the t1/2 stood at 1 min. Moreover, in assay [2], the “100 nM Ag Bound (RU)” value came to 123 RU, the Kd is 3.38 nM, the koff came out at 0.00179 s⁻¹ and the kon stood at 529000 M⁻¹ s⁻¹. In addition, the t1/2 in assay [2] stood at 6 min. In assay [4], the “Total RFU at 4C” value came to 1.5e+06 RFU and the “Total RFU at 37C (2 h)” value turned out to be 1.69e+06 RFU. For the same molecule, in assay [5], the midpoint of the response, the EC50, lay at 1.9 nM and the “S/N (MFI over no-antibody wells)” value was determined as 21.
